Test results published in US20020123091A1.

How the values were obtained:
[1] = biological target: human kallikrein (Haematologic Technologies) (human) (UniProt P03952); assay: apparent Ki (K1*) calculated from the IC50 as K1*=IC50/(1+(S/KM)), assuming competitive inhibition; chromogenic substrate S2305 1.8 mM, kallikrein 1.25 nM
[2] = biological target: human kallikrein (Haematologic Technologies) (human) (UniProt P03952); assay: cell-based or functional assay

Sequence of human kallikrein (Haematologic Technologies) (human) (P03952 20-638 limits assumed): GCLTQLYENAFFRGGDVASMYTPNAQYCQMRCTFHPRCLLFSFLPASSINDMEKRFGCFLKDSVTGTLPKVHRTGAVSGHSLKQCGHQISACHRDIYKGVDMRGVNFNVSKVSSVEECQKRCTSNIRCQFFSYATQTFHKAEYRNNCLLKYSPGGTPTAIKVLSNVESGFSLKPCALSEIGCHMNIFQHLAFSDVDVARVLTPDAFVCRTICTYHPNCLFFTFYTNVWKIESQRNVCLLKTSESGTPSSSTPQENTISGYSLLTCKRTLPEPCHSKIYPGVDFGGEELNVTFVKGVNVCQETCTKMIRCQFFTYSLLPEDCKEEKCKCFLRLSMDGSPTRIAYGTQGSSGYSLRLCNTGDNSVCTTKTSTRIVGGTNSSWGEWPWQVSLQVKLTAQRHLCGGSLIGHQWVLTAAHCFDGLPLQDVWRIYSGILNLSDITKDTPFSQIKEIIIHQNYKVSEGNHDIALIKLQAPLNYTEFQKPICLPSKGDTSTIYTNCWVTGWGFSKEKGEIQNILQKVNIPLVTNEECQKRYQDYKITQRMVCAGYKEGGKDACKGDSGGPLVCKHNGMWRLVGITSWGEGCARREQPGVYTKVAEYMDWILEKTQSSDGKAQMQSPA

- Ki [1]: 37 nM
- inhibition of kallikrein enzymatic activity toward chromogenic substrate S2305 (IC50) [2]: 104 nM
Substance: PRO256 polypeptide (from UniProt O43278 36-465)
